Patent publication US20050053613A1

Target: CD8 on peripheral blood T cells (UniProt P01732)
Experiment: cell-based or functional assay

## gp180, mAb B9 affinity-purified material from T84 cells (from UniProt P06731 35-685)
  killing in a CTL assay testing alloreactive CTL: < 15%
